Molecular target: HLA-DRβ1*13 (human)
Assay: cell-based or functional assay

B1: Peptide 53 (peptide)
peptide: KQIINMWQEIGKAMYA
proliferation of KT9 cells: ≤ 2 fold
